Data set [1] has as its target G3*01 Fc fragment (CH2CH3 of IgG3 allele IGHG3*01, G3m(b*), with an IgG4 hinge) (human). The data set can be described thus: FRET or BRET; real-time half-molecule exchange of Fc fragments; 4 μg/ml Fc-488 and Fc-594 in PBS-P, each 1 h at 37 °C with 3 mM DTT, then mixed in equal volumes, 37 °C (IgG4-Fc-V397M/K392N at 10 μg/ml final); kobs taken as the CH3-CH3 dissociation rate (dimer to single chains).

The target of data set [2] is human IgG1 antibody, half-molecule (heavy chain plus light chain) after reduction of the hinge disulfide bonds (human). Kind of data set: FRET or BRET; real-time Fab arm (half-molecule) exchange of whole IgG; equimolar DyLight488- and DyLight594-labelled antibody, inter-heavy chain disulfide bonds fully reduced with DTT, 37 °C; first-order exponential fit; kobs taken as the CH3-CH3 dissociation rate (dimer to half-molecules). (In general: BRET reads energy transfer from a luciferase to a nearby fluorophore.)

Data set [3] concerns the target human IgG2 antibody, half-molecule (heavy chain plus light chain) after reduction of the hinge disulfide bonds (human). The data set is described as above.
Data set [4] shares this target. Kind of data set: SEC; fluorescence-assisted HPLC; reduced (10 mM DTT) and alkylated (iodoacetamide) IgG, serial 4-fold dilutions 0.001-300 nM half-molecules with a small fixed dose of the DyLight-488 labelled equivalent, PBS with 0.1 mg/ml certolizumab pegol and 0.02% Tween 20, 37 °C up to 3 days; Superdex 200; dimer to half-molecules. Background: Size exclusion chromatography separates by hydrodynamic size, large species first.

Data set [5] concerns the target human IgG3 antibody (IGHG3*01), half-molecule (heavy chain plus light chain) after reduction of the hinge disulfide bonds (human). The data set can be described thus: FRET or BRET; real-time Fab arm (half-molecule) exchange of whole IgG; equimolar DyLight488- and DyLight594-labelled antibody, inter-heavy chain disulfide bonds fully reduced with DTT, 37 °C; first-order exponential fit; kobs taken as the CH3-CH3 dissociation rate (dimer to half-molecules).

For data set [6], the target named is human IgG4 antibody, half-molecule (heavy chain plus light chain) after reduction of the hinge disulfide bonds (human). The description is as above.
Data set [7] concerns the molecule itself. The data set can be described thus: FRET or BRET; equilibrium; 2-fold dilutions of equimolar Fc-488 and Fc-594, 2 h at 37 °C with 3 mM DTT; F620/F588 against total half-molecules; homodimerization model; dimer to single chains.
Data set [8] concerns the molecule itself. Kind of data set: FRET or BRET; real-time half-molecule exchange of Fc fragments; 4 μg/ml Fc-488 and Fc-594 in PBS-P, each 1 h at 37 °C with 3 mM DTT, then mixed in equal volumes, 37 °C (IgG4-Fc-V397M/K392N at 10 μg/ml final); kobs taken as the CH3-CH3 dissociation rate (dimer to single chains).

Bounds are passed on as bounds.

“G3*01 Fc fragment (CH2CH3 of IgG3 allele IGHG3*01, G3m(b*), with an IgG4 hinge) (domain or fragment)” came in with a fold faster dissociation than G3*06 in data set [1] greater than 10 fold.

A word on the koff: it is the first-order rate constant of dissociation. Consider “human IgG1 antibody, half-molecule (heavy chain plus light chain) after reduction of the hinge disulfide bonds”, for which, in data set [2], the half-life of dissociation (t1/2) amounted to 16 days and the koff is 5e-07 s⁻¹.

The term Kd denotes the free concentration of one partner at which half of the binding sites on the other are occupied at equilibrium, for simple one-to-one binding. On to “human IgG2 antibody, half-molecule (heavy chain plus light chain) after reduction of the hinge disulfide bonds”, for which, in data set [3], the half-life of dissociation (t1/2) worked out at 6.5 h and the koff was 3e-05 s⁻¹. In addition, the Kd in data set [4] was determined as 0.023 nM.

Consider “human IgG3 antibody (IGHG3*01), half-molecule (heavy chain plus light chain) after reduction of the hinge disulfide bonds”, for which, in data set [5], the half-life of dissociation (t1/2) is 28 min and the koff turned out to be 0.0004 s⁻¹.

For “human IgG4 antibody, half-molecule (heavy chain plus light chain) after reduction of the hinge disulfide bonds”, in data set [6], the half-life of dissociation (t1/2) came out at 6 min and the koff was 0.0018 s⁻¹.

B1: IgG4-V397M/K392N Fc fragment (domain or fragment)
chain: ESKYGPPCPSCPAPEFLGGPSVFLFPPKPKDTLMISRTPEVTCVVVDVSQEDPEVQFNWYVDGVEVHNAKTKPREEQFNSTYRVVSVLTVLHQDWLNGKEYKCKVSNKGLPSSIEKTISKAKGQPREPQVYTLPPSQEEMTKNQVSLTCLVKGFYPSDIAVEWESNGQPENNYNTTPPMLDSDGSFFLYSRLTVDKSRWQEGNVFSCSVMHEALHNHYTQKSLSLSLGK
modifications: DyLight 488 or DyLight 594 amine reactive dye (average degree of labeling ~2 for Fc fragments); hinge disulfide bonds reduced with DTT
B1: in data set [7], binding was characterised by a dissociation constant (Kd) of 2300 nM. Besides, in data set [8], the koff turned out to be 0.16 s⁻¹.

B2: G2-M397V Fc fragment (CH2CH3 of IgG2 with M397V, IgG4 hinge) (domain or fragment)
chain: ESKYGPPCPSCPAPPVAGPSVFLFPPKPKDTLMISRTPEVTCVVVDVSHEDPEVQFNWYVDGVEVHNAKTKPREEQFNSTFRVVSVLTVVHQDWLNGKEYKCKVSNKGLPAPIEKTISKTKGQPREPQVYTLPPSREEMTKNQVSLTCLVKGFYPSDISVEWESNGQPENNYKTTPPVLDSDGSFFLYSKLTVDKSRWQQGNVFSCSVMHEALHNHYTQKSLSLSPGK
modifications: DyLight 488 or DyLight 594 amine reactive dye (average degree of labeling ~2 for Fc fragments); hinge disulfide bonds reduced with DTT
Consider B2, for which the koff in data set [8] was less than 1e-06 s⁻¹.

B3: G3*03 Fc fragment (CH2CH3 of IgG3 allele IGHG3*03, G3m(c3c5*), with an IgG4 hinge) (domain or fragment)
chain: ESKYGPPCPSCPAPELLGGPSVFLFPPKPKDTLMISRTPEVTCVVVDVSHEDPEVQFKWYVDGVEVHNAKTKPREEQYNSTFRVVSVLTVLHQDWLNGKEYKCKVSNKALPAPIEKTISKTKGQPREPQVYTLPPSREEMTKNQVSLTCLVKGFYPSDIAVEWESSGQPENNYNTTPPVLDSDGSFFLYSRLTVDKSRWQEGNVFSCSVMHEALHNRFTQKSLSLSPGK
modifications: DyLight 488 or DyLight 594 amine reactive dye (average degree of labeling ~2 for Fc fragments); hinge disulfide bonds reduced with DTT
Consider B3, for which the “fold faster dissociation than IgG4 (m17)” value in data set [8] was roughly 15 fold.
